Source: patent US12415869B2, “Chemically induced protein dimerization systems” (UNIVERSITY OF WASHINGTON, priority 2019, dated 2025)
Each block holds one molecule with its values, some of them ahead of it.

Legend:
Assay type in all cases: binding
CA-14-CBD complex = experiment: BLI of immobilized dimerization binders with CA-14 pre-equilibrated with CBD; settings: for Koff / Kon: CBD +
Text: (§1) With the purified DB nanobodies in hand, we first sought to determine their binding affinities to the CA-14-CBD. CBD might directly bind to selected dimerization binders, which can affect the affinity measurement. To rule out this possibility, the four nanobodies were biotinylated (FIG. 7c) and immobilized on streptavidin biosensors, and the interaction with CBD was detected by BLI. Only minimal binding between CBD and the dimerization binders was detected (data not shown). Moreover, the binding-dissociation dynamics of the CA-14-CBD complex can also affect the measurement of dimerization binder affinities. To address this, the affinity was measured by a BLI assay in which the biosensor-immobilized dimerization binders were interacted with CA-14 pre-equilibrated with varied concentrations of CBD (FIG. 9a). The concentrations of the CA-14-CBD complex in equilibrium were calculated based on input CA-14 and CBD concentrations. The CA-14-CBD complex concentration was approximated to be constant because only a minimal fraction of the complex bound to the biosensor tips during the BLI assay. It was confirmed that CA-14 only interacts with the dimerization binders in the presence of CBD (FIG. 3a). The KDs of the four dimerization binders varied from 56.4 nM to 19 μM (Table 5).
The nanobody binding kinetics was analyzed using an Octet™ RED96 system (ForteBio) and Streptavidin (SA) or Super Streptavidin (SSA) biosensors. For the anchor-binder analysis, 200 nM biotinylated anchor binders were immobilized on SSA biosensors with a binding assay buffer (1×PBS, pH 7.4, 0.05% Tween 20, 0.2% BSA, 3% methanol; Note: because CBD and THC were dissolved in methanol to make stock solutions, 3% methanol was added to the buffer to fairly compare samples and controls). Serial dilutions of CBD and THC were used for the anchor binder assays. Dissociation constants (KDs) of anchor binder-ligand interactions were calculated based on a steady-state analysis using Octet™ RED96 data analysis software. For the dimerization-binder analysis, 200 nM biotinylated dimerization binders were immobilized on SA biosensors with the binding assay buffer and then assayed with 1 μM CA-14 pre-equilibrated with serial dilutions of CBD or THC. KDs, kons, and koffs of the interactions between anchor binder-ligand complexes and dimerization binders were calculated based on a heterogeneous ligand model global fit (2:1) of the data and simulated binding equilibria of the anchor binder and CBD described in Supplementary Notes.
In order to determine the binding kinetics of our nanobody CID system we performed a series of bio layer interferometry (BLI) experiments. In all experiments we used an Octet RED96 system (ForteBio) and Streptavidin Biosensors (ForteBio). 200 nM biotinylated protein (FIGS. 7b & 4C) were immobilized on biosensors (Super Streptavidin, SSA used for anchor binder; Streptavidin, SA used for dimerization binder) with a binding assay buffer (1×PBS, pH 7.4, 0.05% Tween 20, 0.2% BSA, 3% methanol; Note: because CBD and THC were dissolved in methanol to make stock solutions, 3% methanol was added to the buffer to fairly compare samples and controls). Ligand loading was followed by a quenching step using free biotin. All experiments were performed using four measurements to control for sensor drift and unspecific binding: • No ligand, no analyte • With ligand, no analyte • No ligand, with analyte • With ligand, with analyte
Next, we wanted to determine the binding affinity between CA-14 bound to CBD (referred to as CA-14*) and a panel of DBs. We observed no detectable binding between CA-14 and any of the DBs (FIG. 3a). We also rely on the observation that the DBs have weak binding to CBD, and therefore we can assume that only CA-14* binds the DB loaded to the sensor. We control the CA-14* concentration by using a fixed concentration of 1 μM CA-14 pre-incubated to equilibrium with six different concentrations of CBD. […]

[1] = Bio-Layer Interferometry (BLI) of immobilized anchor binders with unlabeled CBD or THC; settings: unlabeled CBD, anchor binder immobilized on Super Streptavidin biosensors, steady-state analysis, read-out: dissociation constants (KDs) of anchor binder to CBD
Text: To confirm that the nanobody binding only requires CBD, and not the linker between CBD and biotin or the streptavidin, we measured the binding affinity using unlabeled CBD. Anchor-binder hits were expressed in E. coli periplasm and purified by nickel-affinity and size-exclusion chromatography (SEC). Purified nanobodies were enzymatically biotinylated (FIG. 7a-b) and immobilized on streptavidin biosensors to quantify binding affinities to CBD or THC by Bio-Layer Interferometry (BLI) (FIG. 8a).
The nanobody binding kinetics was analyzed using an Octet™ RED96 system (ForteBio) and Streptavidin (SA) or Super Streptavidin (SSA) biosensors. […] Dissociation constants (KDs) of anchor binder-ligand interactions were calculated based on a steady-state analysis using Octet™ RED96 data analysis software. […] KDs, kons, and koffs of the interactions between anchor binder-ligand complexes and dimerization binders were calculated based on a heterogeneous ligand model global fit (2:1) of the data and simulated binding equilibria of the anchor binder and CBD described in Supplementary Notes. […]
We first determined the binding affinity between the CBD anchor 14 (CA-14) and CBD via steady-state analysis (FIG. 8). […] We observed minimal binding between DBs and CBD, but the KDs are too weak to be determined (data not shown).

[2] = BLI of immobilized dimerization binders with CBD alone
Text: as §1, with “It was confirmed that CA-14 only interacts with the dimerization binders in the presence of CBD (FIG. 3a). The KDs of the four dimerization binders varied from 56.4 nM to 19 μM (Table 5).” left out
We first determined the binding affinity between the CBD anchor 14 (CA-14) and CBD via steady-state analysis (FIG. 8). […] We observed minimal binding between DBs and CBD, but the KDs are too weak to be determined (data not shown). […]

B1: DB-18: dimerization binder nanobody; CDRs GYSRADD, FGETDSF, YHNYTNMFE (SEQ ID NO: 61-63) (protein)
VHH: EVQLQASGGGFVQPGGSLRLSCAASGGYSRADDMGWFRQAPGKEREFVSAISFGETDSFYYADSVKGRFTISRDNSKNTVYLQMNSLRAEDTATYYCAYHNYTNMFEYWGQGTQVTVSS
modifications: left off: small tags and cut ends
- Koff (CA-14-CBD complex): 227 10^−4s^−1
- Kon (CA-14-CBD complex): 0.41 10^5 M^−1s^−1

B2: DB-11: dimerization binder nanobody; CDRs TTSDNDT, WNGGRDE, YQDNRSWQE (SEQ ID NO: 40-42) (protein)
VHH: EVQLQASGGGFVQPGGSLRLSCAASGTTSDNDTMGWFRQAPGKEREFVSAISWNGGRDEYYADSVKGRFTISRDNSKNTVYLQMNSLRAEDTATYYCAYQDNRSWQEYWGQGTQVTVSS
modifications: left off: small tags and cut ends
- Koff (CA-14-CBD complex): 840 10^−4s^−1
- Kon (CA-14-CBD complex): 0.61 10^5 M^−1s^−1

- Kd [1]: 6 µM
B3: CA-14: anchor binder nanobody; CDR1 SRSRQYD, CDR2 SNQDQPP, CDR3 FKQHHANGA (SEQ ID NO: 1-3) (protein)
VHH: EVQLQASGGGFVQPGGSLRLSCAASGSTSRQYDMGWFRQAPGKEREFVSAISSNQDQPPYYADSVKGRFTISRDNSKNTVYLQMNSLRAEDTATYYCAFKQHHANGAYWGQGTQVTVSS
modifications: left off: small tags and cut ends

B4: DB-6: dimerization binder nanobody; CDRs RFSWGEE, WAATPWQ, DEWHIGHVS (SEQ ID NO: 25-27) (protein)
VHH: EVQLQASGGGFVQPGGSLRLSCAASGRFSWGEEMGWFRQAPGKEREFVSAISWAATPWQYYADSVKGRFTISRDNSKNTVYLQMNSLRAEDTATYYCADEWHIGHVSYWGQGTQVTVSS
modifications: left off: small tags and cut ends
- Koff (CA-14-CBD complex): 1,820 10^−4s^−1
- Kon (CA-14-CBD complex): 0.096 10^5 M^−1s^−1

- Kd (CA-14-CBD complex; BLI, CA-14* = CA-14 bound to CBD, read-out: CA-14*'s affinity to DB-21 (KBC/α)): 0.056 µM
- binding between CBD and the dimerization binders ([2]; BLI, CBD alone, data not shown): very weakly
- Kd ([2]; worked out from KBC/α 56 nM with α=1,000 as a reasonable guess, read-out: KBC (DB-21's affinity to CBD)): 56 µM
B5: DB-21: dimerization binder nanobody; CDRs TTYGQTN, GLQGRDL, FHDFLRMWE (SEQ ID NO: 70-72) (protein)
VHH: EVQLQASGGGFVQPGGSLRLSCAASGTTYGQTNMGWFRQAPGKEREFVSAISGLQGRDLYYADSVKGRFTISRDNSKNTVYLQMNSLRAEDTATYYCAFHDFLRMWEYWGQGTQVTVSS
modifications: left off: small tags and cut ends
- dissociation rate koff (CA-14-CBD complex; CA-14 with CBD): 0.000617 s⁻¹
- Koff (CA-14-CBD complex): 6.17 10^−4s^−1
- Kon (CA-14-CBD complex): 0.11 10^5 M^−1s^−1
